Values quoted from earlier work, collected in patent US6100293A, “Tetracyclic triterpene derivatives with immunosuppressant activity” (Merck & Co., Inc., priority 1998, dated 2000).

Molecular target: T1, Kv 1.3 channels (Homo sapiens, UniProt P22001)
T1 construct: expressed in transfected cells; host or cells: CHO cells
Conditions: reference peptide used at saturating concentration to set the efflux window; read-out: IC50 (blocker of Kv 1.3 channels)

T1 sequence (P22001 whole entry): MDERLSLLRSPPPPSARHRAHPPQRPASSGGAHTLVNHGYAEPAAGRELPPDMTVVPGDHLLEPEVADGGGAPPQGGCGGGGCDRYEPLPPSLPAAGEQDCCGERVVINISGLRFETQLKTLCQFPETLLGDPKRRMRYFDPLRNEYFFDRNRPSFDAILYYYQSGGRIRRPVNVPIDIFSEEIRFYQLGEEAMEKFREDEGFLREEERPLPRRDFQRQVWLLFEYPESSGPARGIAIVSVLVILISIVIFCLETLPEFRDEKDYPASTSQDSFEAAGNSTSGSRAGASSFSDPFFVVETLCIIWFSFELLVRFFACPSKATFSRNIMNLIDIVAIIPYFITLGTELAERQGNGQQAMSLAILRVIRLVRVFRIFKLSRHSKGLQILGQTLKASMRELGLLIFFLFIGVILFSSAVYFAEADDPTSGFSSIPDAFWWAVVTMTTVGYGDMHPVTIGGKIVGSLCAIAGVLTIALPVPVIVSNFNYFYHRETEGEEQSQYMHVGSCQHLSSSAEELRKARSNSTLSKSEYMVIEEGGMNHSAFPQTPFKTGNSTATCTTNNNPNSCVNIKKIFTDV

**Q.** For “margatoxin (TIINVKCTSPKQCLPPCKAQFGQSAGAKCMNGKCKCYPH; UniProt P40755 1-39, looked up)”, which IC50 is on record?
**A.** Its IC50 is 0.1 nM.
